These sequences were tested on Escherichia coli TOP10 (assay: shrunken log2 fold change of peptide-encoding DNA abundance (4.5 h post-induction vs induction); higher = less antimicrobial activity (less host growth inhibition)). Settings: time post-induction: 4.5 h; library: site-saturation at positions 5, 18, 19, 20.
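Note: peptides expressed intracellularly from a pBAD plasmid library in pooled LB shake-flask culture, induced with 0.3% L-arabinose, DNA abundance read by NGS, three biological replicates, DESeq2 with apeglm shrinkage.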

| Sequence | shrunken log2 fold change |
| --- | --- |
| RRIRARPPRLPRPRPRPPQMPRP | 0.868 |
| RRIRIRPPRLPRPRPRPWRSPRP | 0.00683 |
| RRIRERPPRLPRPRPRPWLFPRP | -0.0723 |
| RRIRGRPPRLPRPRPRPWNQPRP | -0.139 |
| RRIRDRPPRLPRPRPRPWYVPRP | -0.726 |
| RRIRCRPPRLPRPRPRPTIPPRP | -0.417 |
| RRIRKRPPRLPRPRPRPQVIPRP | 0.108 |
| RRIRRRPPRLPRPRPRPVGGPRP | 0.984 |
| RRIRFRPPRLPRPRPRPAVTPRP | -0.347 |
| RRIRGRPPRLPRPRPRPKWCPRP | 0.113 |
| RRIRLRPPRLPRPRPRPVYDPRP | -0.0147 |
| RRIRSRPPRLPRPRPRPSGRPRP | 0.185 |
| RRIRPRPPRLPRPRPRPNCVPRP | -0.0731 |
| RRIRVRPPRLPRPRPRPSSGPRP | -0.39 |
| RRIRLRPPRLPRPRPRPYACPRP | -0.0291 |
| RRIRQRPPRLPRPRPRPDSFPRP | 0.0109 |
| RRIRHRPPRLPRPRPRPFCIPRP | -0.538 |
| RRIRWRPPRLPRPRPRPENYPRP | -0.122 |
| RRIRKRPPRLPRPRPRPMKNPRP | 0.212 |
| RRIRYRPPRLPRPRPRPVPFPRP | -0.348 |
| RRIRWRPPRLPRPRPRPVRDPRP | 0.687 |
| RRIRFRPPRLPRPRPRPDFVPRP | -0.0292 |
| RRIRKRPPRLPRPRPRPPNHPRP | 0.33 |
| RRIRLRPPRLPRPRPRPNWMPRP | -0.296 |
| RRIRPRPPRLPRPRPRPWRWPRP | 0.915 |

| Sequence | shrunken log2 fold change |
| --- | --- |
| RRIRQRPPRLPRPRPRPPYNPRP | -0.154 |
| RRIRRRPPRLPRPRPRPQQNPRP | 0.0713 |
| RRIRYRPPRLPRPRPRPWYTPRP | -1.81 |
| RRIRNRPPRLPRPRPRPFWFPRP | 0.195 |
| RRIRFRPPRLPRPRPRPMWKPRP | -0.0148 |
| RRIRDRPPRLPRPRPRPCWHPRP | 2.46 |
| RRIRQRPPRLPRPRPRPYHGPRP | -0.126 |
| RRIRWRPPRLPRPRPRPMPWPRP | 0.0161 |
| RRIRFRPPRLPRPRPRPIMTPRP | -0.368 |
| RRIRHRPPRLPRPRPRPCTIPRP | -0.0935 |
| RRIRRRPPRLPRPRPRPRVVPRP | 0.215 |
| RRIRHRPPRLPRPRPRPRMCPRP | -0.0257 |
| RRIRVRPPRLPRPRPRPLRNPRP | 0.408 |
| RRIRRRPPRLPRPRPRPGDCPRP | 0.336 |
| RRIRTRPPRLPRPRPRPEHWPRP | -0.00863 |
| RRIRARPPRLPRPRPRPMMVPRP | 0.212 |
| RRIRMRPPRLPRPRPRPGDHPRP | 0.147 |
| RRIRWRPPRLPRPRPRPHVKPRP | -0.439 |
| RRIRHRPPRLPRPRPRPPFRPRP | 0.141 |
| RRIRNRPPRLPRPRPRPTAHPRP | 0.0105 |
| RRIRCRPPRLPRPRPRPTHEPRP | 0.628 |
| RRIRMRPPRLPRPRPRPLAHPRP | 0.0417 |
| RRIRHRPPRLPRPRPRPEFYPRP | -0.0662 |
| RRIRRRPPRLPRPRPRPMLRPRP | 0.854 |
| RRIRKRPPRLPRPRPRPHPCPRP | -0.22 |

| Sequence | shrunken log2 fold change |
| --- | --- |
| RRIRARPPRLPRPRPRPMFGPRP | 0.215 |
| RRIRDRPPRLPRPRPRPPKGPRP | 0.644 |
| RRIRGRPPRLPRPRPRPLPHPRP | 0.638 |
| RRIRQRPPRLPRPRPRPPKIPRP | 0.156 |
| RRIRDRPPRLPRPRPRPDVVPRP | -0.0108 |
| RRIRTRPPRLPRPRPRPINMPRP | -0.0135 |
| RRIRSRPPRLPRPRPRPNLAPRP | -0.14 |
| RRIRGRPPRLPRPRPRPFGFPRP | 0.828 |
| RRIRVRPPRLPRPRPRPPCEPRP | 0.229 |
| RRIRKRPPRLPRPRPRPAELPRP | 0.552 |
| RRIRNRPPRLPRPRPRPQIYPRP | -0.0394 |
| RRIRCRPPRLPRPRPRPRLIPRP | 0.0496 |
| RRIRNRPPRLPRPRPRPNHDPRP | -0.602 |
| RRIRCRPPRLPRPRPRPTNGPRP | -0.0378 |
| RRIRRRPPRLPRPRPRPVILPRP | -0.259 |
| RRIRPRPPRLPRPRPRPTQPPRP | 0.402 |
| RRIRKRPPRLPRPRPRPDTAPRP | 0.154 |
| RRIRGRPPRLPRPRPRPIKHPRP | 0.171 |
| RRIRTRPPRLPRPRPRPSTTPRP | -0.0853 |
| RRIRKRPPRLPRPRPRPLFCPRP | 0.177 |
| RRIRGRPPRLPRPRPRPPGYPRP | 0.737 |
| RRIRNRPPRLPRPRPRPYPVPRP | 0.00968 |
| RRIRLRPPRLPRPRPRPKRCPRP | -0.0395 |
| RRIRQRPPRLPRPRPRPILIPRP | -0.521 |
| RRIRPRPPRLPRPRPRPRQTPRP | 0.338 |

| Sequence | shrunken log2 fold change |
| --- | --- |
| RRIRMRPPRLPRPRPRPDRKPRP | 0.0503 |
| RRIRTRPPRLPRPRPRPPIMPRP | -0.454 |
| RRIRGRPPRLPRPRPRPYNLPRP | -0.487 |
| RRIRNRPPRLPRPRPRPQQEPRP | -0.124 |
| RRIRLRPPRLPRPRPRPIMGPRP | -0.0219 |
| RRIRCRPPRLPRPRPRPELLPRP | -0.0954 |
| RRIRMRPPRLPRPRPRPPPRPRP | 2.36 |
| RRIRIRPPRLPRPRPRPAESPRP | 0.0486 |
| RRIRMRPPRLPRPRPRPMADPRP | 1.11 |
| RRIRFRPPRLPRPRPRPTQSPRP | 0.691 |
| RRIRGRPPRLPRPRPRPIAKPRP | 0.245 |
| RRIRGRPPRLPRPRPRPVIFPRP | 0.598 |
| RRIRKRPPRLPRPRPRPEQAPRP | 0.776 |
| RRIRTRPPRLPRPRPRPFWIPRP | -0.34 |
| RRIRCRPPRLPRPRPRPSREPRP | -0.184 |
| RRIRTRPPRLPRPRPRPFYEPRP | -0.518 |
| RRIRSRPPRLPRPRPRPQSVPRP | -0.138 |
| RRIRMRPPRLPRPRPRPNLWPRP | 0.119 |
| RRIRDRPPRLPRPRPRPGFSPRP | 0.0888 |
| RRIRKRPPRLPRPRPRPLALPRP | 0.536 |
| RRIRDRPPRLPRPRPRPGQLPRP | -0.284 |
| RRIRYRPPRLPRPRPRPVAYPRP | -0.926 |
| RRIRHRPPRLPRPRPRPYKRPRP | -0.051 |
| RRIRVRPPRLPRPRPRPKTWPRP | 0.063 |
| RRIRTRPPRLPRPRPRPQICPRP | 0.13 |

| Sequence | shrunken log2 fold change |
| --- | --- |
| RRIRTRPPRLPRPRPRPFGIPRP | -0.338 |
| RRIRIRPPRLPRPRPRPDCHPRP | -0.154 |
| RRIRTRPPRLPRPRPRPWFMPRP | -0.364 |
| RRIRPRPPRLPRPRPRPQMVPRP | -0.491 |
| RRIRSRPPRLPRPRPRPVLAPRP | 0.557 |
| RRIRHRPPRLPRPRPRPEWVPRP | -0.086 |
| RRIRARPPRLPRPRPRPDWFPRP | 0.408 |
| RRIRARPPRLPRPRPRPLNKPRP | 0.028 |
| RRIRFRPPRLPRPRPRPIIAPRP | -0.413 |
| RRIRSRPPRLPRPRPRPPAVPRP | 0.711 |
| RRIRFRPPRLPRPRPRPTSYPRP | -0.43 |
| RRIRGRPPRLPRPRPRPEYAPRP | 1.26 |
| RRIRARPPRLPRPRPRPMFLPRP | 0.00213 |
| RRIRIRPPRLPRPRPRPSENPRP | -0.356 |
| RRIRMRPPRLPRPRPRPILRPRP | 0.00958 |
| RRIRGRPPRLPRPRPRPIVIPRP | -0.227 |
| RRIRCRPPRLPRPRPRPGPTPRP | 0.848 |
| RRIRIRPPRLPRPRPRPAHTPRP | -0.588 |
| RRIRFRPPRLPRPRPRPASAPRP | 0.47 |
| RRIRQRPPRLPRPRPRPNGYPRP | -0.121 |
| RRIRQRPPRLPRPRPRPVMSPRP | -0.215 |
| RRIRPRPPRLPRPRPRPGKWPRP | 0.118 |
| RRIRPRPPRLPRPRPRPVHQPRP | -0.00254 |
| RRIRRRPPRLPRPRPRPVHFPRP | -0.278 |
| RRIRPRPPRLPRPRPRPSAPPRP | 0.017 |

| Sequence | shrunken log2 fold change |
| --- | --- |
| RRIRMRPPRLPRPRPRPDRHPRP | 0.0052 |
| RRIRARPPRLPRPRPRPNMQPRP | 0.18 |
| RRIRTRPPRLPRPRPRPARQPRP | 0.263 |
| RRIRARPPRLPRPRPRPGVTPRP | 0.611 |
| RRIRSRPPRLPRPRPRPAGYPRP | 0.0337 |
| RRIRYRPPRLPRPRPRPMGDPRP | -0.0018 |
| RRIRHRPPRLPRPRPRPMYSPRP | -0.263 |
| RRIRTRPPRLPRPRPRPRFKPRP | 0.115 |
| RRIRRRPPRLPRPRPRPEVMPRP | 0.212 |
| RRIRTRPPRLPRPRPRPIYQPRP | -0.364 |
| RRIRDRPPRLPRPRPRPKGLPRP | 0.253 |
| RRIRYRPPRLPRPRPRPMCKPRP | -0.368 |
| RRIRDRPPRLPRPRPRPDFEPRP | 1.35 |
| RRIRMRPPRLPRPRPRPMQIPRP | 0.0553 |
| RRIRGRPPRLPRPRPRPPYQPRP | 0.123 |
| RRIRTRPPRLPRPRPRPLFFPRP | -0.263 |
| RRIRARPPRLPRPRPRPDIPPRP | -0.192 |
| RRIRTRPPRLPRPRPRPGYNPRP | -0.957 |
| RRIRARPPRLPRPRPRPHWTPRP | -0.0108 |
| RRIRERPPRLPRPRPRPNCKPRP | -0.832 |
| RRIRKRPPRLPRPRPRPWYSPRP | -0.234 |
| RRIRSRPPRLPRPRPRPPKCPRP | -0.087 |
| RRIRSRPPRLPRPRPRPYNRPRP | -0.267 |
| RRIRMRPPRLPRPRPRPIEDPRP | 0.224 |
| RRIRLRPPRLPRPRPRPLQHPRP | 0.212 |
